Experimental data taken from the Human Domainome abundance scans (Beltran et al. 2025).
± gives the uncertainty stated by the source.

B1: Ubiquitin-protein ligase residues 30 to 86; numbered along this chain, Q05086 (parent)
chain: KHLIERYYHQLTEGCGNEACTNEFCASCPTFLRMDNNAAAIKALELYKINAKLCDPH

Variants of: B1
Test: abundance fitness (aPCA) (normalised: wild type 0, dead -1); higher = more abundant; growth selection in yeast, the domain comes from the species named
Details: Homo sapiens

Question: Which abundance fitness does the source give for KHLIERYYHQLTEGCGNEACTNERCASCPTFLRMDNNAAAIKALELYKINAKLCDPH [F24R] here?
Answer: -0.095 ± 0.049

Question: With KHLIERYYHQLTEGCGNEACTNEGCASCPTFLRMDNNAAAIKALELYKINAKLCDPH [F24G] as the variant, how does the abundance fitness read?
Answer: -0.057 ± 0.048

Question: For KHLIERYYHQLTEGCGNEACTNEWCASCPTFLRMDNNAAAIKALELYKINAKLCDPH [F24W], which abundance fitness is on record?
Answer: 0.07 ± 0.062

Question: Which abundance fitness does the source give for KHLIERYYHQLTEGCGNEACTLEFCASCPTFLRMDNNAAAIKALELYKINAKLCDPH [N22L] here?
Answer: -0.727 ± 0.065

Question: Which abundance fitness does the source give for KHLIERYYHQLTEGCGNEACTPEFCASCPTFLRMDNNAAAIKALELYKINAKLCDPH [N22P] here?
Answer: -0.916 ± 0.14

Question: With KHLIERYYHQLTEGCGNEACTDEFCASCPTFLRMDNNAAAIKALELYKINAKLCDPH [N22D] as the variant, how does the abundance fitness read?
Answer: -0.602 ± 0.089

Question: For KHLIERYYHQLTEGCGNEACTHEFCASCPTFLRMDNNAAAIKALELYKINAKLCDPH [N22H], which abundance fitness is on record?
Answer: -0.345 ± 0.12

Question: Which abundance fitness does the source give for KHLIERYYHQLTEGCGNEACTSEFCASCPTFLRMDNNAAAIKALELYKINAKLCDPH [N22S] here?
Answer: -0.033 ± 0.06

Question: For KHLIERYYHQLTEGCGNEACTCEFCASCPTFLRMDNNAAAIKALELYKINAKLCDPH [N22C], which abundance fitness is on record?
Answer: -0.532 ± 0.13

Question: For KHLIERYYHQLTEGCGNEACTQEFCASCPTFLRMDNNAAAIKALELYKINAKLCDPH [N22Q], which abundance fitness is on record?
Answer: -0.286 ± 0.087

Question: With KHLIERYYHQLTEGCGNEACTKEFCASCPTFLRMDNNAAAIKALELYKINAKLCDPH [N22K] as the variant, how does the abundance fitness read?
Answer: -0.831 ± 0.1

Question: Which abundance fitness does the source give for KHLIERYYHQLTEGCGNEACTREFCASCPTFLRMDNNAAAIKALELYKINAKLCDPH [N22R] here?
Answer: -0.638 ± 0.069

Question: For KHLIERYYHQLTEGCGNEACTWEFCASCPTFLRMDNNAAAIKALELYKINAKLCDPH [N22W], which abundance fitness is on record?
Answer: -0.73 ± 0.11

Question: Which abundance fitness does the source give for KHLIERYYHQLTEGCGNEACTGEFCASCPTFLRMDNNAAAIKALELYKINAKLCDPH [N22G] here?
Answer: -0.318 ± 0.062

Question: Which abundance fitness does the source give for KHLIERYYHQLTEGCGNEACTYEFCASCPTFLRMDNNAAAIKALELYKINAKLCDPH [N22Y] here?
Answer: -0.277 ± 0.088

Question: Which abundance fitness does the source give for KHLIERYYHQLTEGCGNEACTEEFCASCPTFLRMDNNAAAIKALELYKINAKLCDPH [N22E] here?
Answer: -0.236 ± 0.072

Question: For KHLIERYYHQLTEGCGNEACTIEFCASCPTFLRMDNNAAAIKALELYKINAKLCDPH [N22I], which abundance fitness is on record?
Answer: -0.492 ± 0.14

Question: Which abundance fitness does the source give for KHLIERYYHQLTEGCGNEACTMEFCASCPTFLRMDNNAAAIKALELYKINAKLCDPH [N22M] here?
Answer: -0.478 ± 0.073

Question: Which abundance fitness does the source give for KHLIERYYHQLTEGCGNEACTTEFCASCPTFLRMDNNAAAIKALELYKINAKLCDPH [N22T] here?
Answer: -0.12 ± 0.071

Question: With KHLIERYYHQLTEGCGNEACTVEFCASCPTFLRMDNNAAAIKALELYKINAKLCDPH [N22V] as the variant, how does the abundance fitness read?
Answer: -0.301 ± 0.061

Question: Which abundance fitness does the source give for KHLIERYYHQLTEGCGNEACTFEFCASCPTFLRMDNNAAAIKALELYKINAKLCDPH [N22F] here?
Answer: -0.418 ± 0.09

Question: With KHLIERYYHQLTEGCGNEACTNEFFASCPTFLRMDNNAAAIKALELYKINAKLCDPH [C25F] as the variant, how does the abundance fitness read?
Answer: -0.791 ± 0.17

Question: For KHLIERYYHQLTEGCGNEACTNEFGASCPTFLRMDNNAAAIKALELYKINAKLCDPH [C25G], which abundance fitness is on record?
Answer: -0.973 ± 0.1

Question: With KHLIERYYHQLTEGCGNEACTNEFAASCPTFLRMDNNAAAIKALELYKINAKLCDPH [C25A] as the variant, how does the abundance fitness read?
Answer: -1.03 ± 0.18

Question: For KHLIERYYHQLTEGCGNEACTNEFHASCPTFLRMDNNAAAIKALELYKINAKLCDPH [C25H], which abundance fitness is on record?
Answer: -0.887 ± 0.21

Question: Which abundance fitness does the source give for KHLIERYYHQLTEGCGNEACTNEFIASCPTFLRMDNNAAAIKALELYKINAKLCDPH [C25I] here?
Answer: -0.613 ± 0.28

Question: For KHLIERYYHQLTEGCGNEACTNEFEASCPTFLRMDNNAAAIKALELYKINAKLCDPH [C25E], which abundance fitness is on record?
Answer: -0.72 ± 0.21

Question: With KHLIERYYHQLTEGCGNEYCTNEFCASCPTFLRMDNNAAAIKALELYKINAKLCDPH [A19Y] as the variant, how does the abundance fitness read?
Answer: -0.1 ± 0.11

Question: For KHLIERYYHQLTEGCGNEACVNEFCASCPTFLRMDNNAAAIKALELYKINAKLCDPH [T21V], which abundance fitness is on record?
Answer: -0.005 ± 0.058

Question: Which abundance fitness does the source give for KHLIERYYHQLTEGCGNEACPNEFCASCPTFLRMDNNAAAIKALELYKINAKLCDPH [T21P] here?
Answer: -0.076 ± 0.077

Question: With KHLIERYYHQLTEGCGNEACENEFCASCPTFLRMDNNAAAIKALELYKINAKLCDPH [T21E] as the variant, how does the abundance fitness read?
Answer: 0.043 ± 0.07

Question: With KHLIERYYHQLTEGCGNEACWNEFCASCPTFLRMDNNAAAIKALELYKINAKLCDPH [T21W] as the variant, how does the abundance fitness read?
Answer: -0.105 ± 0.07

Question: With KHLIERYYHQLTEGCGNEACSNEFCASCPTFLRMDNNAAAIKALELYKINAKLCDPH [T21S] as the variant, how does the abundance fitness read?
Answer: -0.037 ± 0.059

Question: With KHLIERYYHQLTEGCGNEACQNEFCASCPTFLRMDNNAAAIKALELYKINAKLCDPH [T21Q] as the variant, how does the abundance fitness read?
Answer: -0.046 ± 0.087

Question: Which abundance fitness does the source give for KHLIERYYHQLTEGCGNEACANEFCASCPTFLRMDNNAAAIKALELYKINAKLCDPH [T21A] here?
Answer: 0.029 ± 0.054

Question: For KHLIERYYHQLTEGCGNEACCNEFCASCPTFLRMDNNAAAIKALELYKINAKLCDPH [T21C], which abundance fitness is on record?
Answer: -0.015 ± 0.08

Question: For KHLIERYYHQLTEGCGNEACMNEFCASCPTFLRMDNNAAAIKALELYKINAKLCDPH [T21M], which abundance fitness is on record?
Answer: -0.129 ± 0.076

Question: Which abundance fitness does the source give for KHLIERYYHQLTEGCGNEACFNEFCASCPTFLRMDNNAAAIKALELYKINAKLCDPH [T21F] here?
Answer: -0.008 ± 0.12

Question: Which abundance fitness does the source give for KHLIERYYHQLTEGCGNEACRNEFCASCPTFLRMDNNAAAIKALELYKINAKLCDPH [T21R] here?
Answer: -0.038 ± 0.051

Question: Which abundance fitness does the source give for KHLIERYYHQLTEGCGNEACINEFCASCPTFLRMDNNAAAIKALELYKINAKLCDPH [T21I] here?
Answer: -0.033 ± 0.096

Question: With KHLIERYYHQLTEGCGNEACHNEFCASCPTFLRMDNNAAAIKALELYKINAKLCDPH [T21H] as the variant, how does the abundance fitness read?
Answer: 0.018 ± 0.093

Question: For KHLIERYYHQLTEGCGNEACYNEFCASCPTFLRMDNNAAAIKALELYKINAKLCDPH [T21Y], which abundance fitness is on record?
Answer: -0.458 ± 0.14

Question: Which abundance fitness does the source give for KHLIERYYHQLTEGCGNEACLNEFCASCPTFLRMDNNAAAIKALELYKINAKLCDPH [T21L] here?
Answer: -0.086 ± 0.062

Question: For KHLIERYYHQLTEGCGNEACKNEFCASCPTFLRMDNNAAAIKALELYKINAKLCDPH [T21K], which abundance fitness is on record?
Answer: 0.059 ± 0.086

Question: With KHLIERYYHQLTEGCGNEACNNEFCASCPTFLRMDNNAAAIKALELYKINAKLCDPH [T21N] as the variant, how does the abundance fitness read?
Answer: 0.067 ± 0.093

Question: Which abundance fitness does the source give for KHLIERYYHQLTEGCGNEACDNEFCASCPTFLRMDNNAAAIKALELYKINAKLCDPH [T21D] here?
Answer: -0.011 ± 0.08

Question: For KHLIERYYHQLTEGCGNEACGNEFCASCPTFLRMDNNAAAIKALELYKINAKLCDPH [T21G], which abundance fitness is on record?
Answer: -0.022 ± 0.049
